Results as given in patent publication US11840557B2, “Wnt7 variants capable of activating g-protein coupled receptor (Gpr)124/Reck/frizzled/lipoprotein receptor-related protein (LRP)-mediated Wnt signaling” (UNIVERSITÉ LIBRE DE BRUXELLES, priority 2018, dated 2023).

Tests used:
zebrafish zygote = format: in vivo, Danio rerio; conditions: injection in zygote, 3 dpf larvae
Description: (§1) The following splice-blocking morpholino (MOs) (GeneTools, Eugene, OR) were injected into embryos at the one-cell stage: wnt7aa ([…], 6 ng) (SEQ ID NO.: 123). Synthetic mRNAs were transcribed from pCS2 plasmids after NotI digestion using the mMessage mMachine SP6 Kit (Ambion, Carlsbad, CA) and injected into one-cell stage zebrafish embryo. For Xenopus laevis microinjection, 15 pg of wnt7a or wnt7a^K190A or wnt7a^1-278 mRNA were injected into one ventral blastomere of the four-cell stage embryo.
(§2) zebrafish embryos were imaged with an LSM710 confocal microscope and images were processed in ImageJ. Images of zebrafish development phenotypes were taken on Leica M165 FC. Xenopus larvae were imaged with an Olympus SZX16.

all 10 Fz genes = experiment: STF luciferase assay after co-transfection with all 10 Fz genes, no Gpr124/Reck; format: cell-based; conditions: in the absence of Gpr124/Reck
Description: Cells were plated into 96-well plates and transfected after 24 h in triplicate with Lipofectamine 2000 (Invitrogen, Carlsbad, Calif.). The amount of plasmid DNA transfected per well was optimized for each expression vector: Renilla luciferase (0.5 ng), Wnt (20 ng), Fz (5 ng), LRP (2.5 ng), Gpr124 (10 ng), Reck (10 ng) unless otherwise indicated. The total amount of DNA was adjusted to 100 ng per well with the empty pCS2 vector. Cells were harvested in passive lysis buffer (E1960, Promega, Wisconsin) and the activities of the Firefly and Renilla luciferases were measured sequentially using the Dual-Luciferase Reporter Assay system (E1960, Promega, Madison, Wis.) 48 h post-transfection.

HA-Reck = target: T1, HA-Reck (Homo sapiens, UniProt O95980); experiment: Proximity ligation assay (PLA), anti-V5/anti-HA, V5-tagged Wnt ligand and HA-Reck in GPR124−/−;RECK−/− cells; format: cell-based; conditions: GPR124−/−;RECK−/− cells co-expressing HA-Reck
T1 construct: expressed in transfected cells; host or cells: GPR124-/-;RECK-/- HEK293 (STF) cells, pCS2 / CMV promoter
T1 sequence (O95980 23-942): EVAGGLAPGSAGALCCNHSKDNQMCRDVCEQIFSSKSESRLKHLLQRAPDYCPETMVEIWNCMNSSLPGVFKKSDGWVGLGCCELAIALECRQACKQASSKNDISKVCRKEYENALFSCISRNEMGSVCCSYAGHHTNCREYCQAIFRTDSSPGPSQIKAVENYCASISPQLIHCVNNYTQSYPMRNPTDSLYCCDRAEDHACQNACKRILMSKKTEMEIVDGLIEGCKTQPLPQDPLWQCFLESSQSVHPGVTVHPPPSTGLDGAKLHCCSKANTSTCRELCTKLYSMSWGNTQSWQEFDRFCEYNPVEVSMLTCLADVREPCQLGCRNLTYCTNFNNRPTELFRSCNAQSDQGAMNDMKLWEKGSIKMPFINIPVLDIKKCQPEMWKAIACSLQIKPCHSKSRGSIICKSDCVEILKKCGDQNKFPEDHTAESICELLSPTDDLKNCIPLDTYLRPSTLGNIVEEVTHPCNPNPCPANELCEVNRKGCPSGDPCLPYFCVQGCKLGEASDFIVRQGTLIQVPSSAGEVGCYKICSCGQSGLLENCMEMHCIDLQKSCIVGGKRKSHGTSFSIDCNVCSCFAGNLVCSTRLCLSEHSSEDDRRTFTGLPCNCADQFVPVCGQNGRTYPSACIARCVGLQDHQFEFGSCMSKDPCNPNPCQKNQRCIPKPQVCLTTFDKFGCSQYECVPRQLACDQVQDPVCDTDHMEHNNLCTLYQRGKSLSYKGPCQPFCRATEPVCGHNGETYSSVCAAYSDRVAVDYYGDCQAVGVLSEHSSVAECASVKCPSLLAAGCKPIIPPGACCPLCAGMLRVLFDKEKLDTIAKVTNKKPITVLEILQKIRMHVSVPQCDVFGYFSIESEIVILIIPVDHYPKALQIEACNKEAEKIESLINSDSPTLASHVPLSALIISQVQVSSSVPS
Description: 1.7. Immunofluorescence and Proximity Ligation Assay Cells were grown in glass-coated chambers (IBIDI, Martinsried, Germany) and transfected after 24 h with Lipofectamine 2000 (Life Technologies, Carlsbad, Calif.). Cells were fixed with 4% paraformaldehyde for 10 min at room temperature (RT) 48 h post transfection. For immunofluorescence staining (IF), cells were blocked in 1% BSA-PBS for 30 min before being exposed to primary antibodies for 1 h at RT. After three PBS washes, cells were incubated with secondary antibodies for 1 h at RT. For anti-V5 staining of Wnt ligands, cells were additionally washes for 10 min in PBS 0.1% Tween 20 before incubation with the secondary antibody solution. For the proximity ligation assay (PLA) (Sigma-Aldrich, St. Louis, Mo.), cells were blocked for 30 min at 37° C. with the Blocking solution provided by the manufacturer before being incubated with the primary antibodies for 1 h at RT. Cells were washed three times and incubated with the PLA probes anti-rabbit PLUS and anti-mouse MINUS for 1 h at 37° C. After two PBS washes, cells were incubated with the Duolink Ligation solution for 30 min at 37° C. After two PBS washes, cells were incubated with the Duolink Amplification solution for 100 min at 37° C. The following antibodies were used: mouse monoclonal anti-V5 (R96025, Life Technologies, Carlsbad, Calif.) at 1:500 for IF and PLA, purified polyclonal rabbit anti-HA (H6908, St. Louis, Mo.) at 1:400 for IF and PLA and anti-mouse Alexa488-conjugated secondary antibody (Thermo Fisher Scientific, Waltham, Mass.) at 1:5000. Cells were stained for 2 min with Hoechst diluted to 10 μg ml-1 in PBS.
Cells and zebrafish embryos were imaged with an LSM710 confocal microscope and images were processed in ImageJ. Images of eye fusion phenotypes were taken on Leica M165 FC. Representations of brain vasculature were generated using Imaris software (BitPlane, Zurich, Switzerland). The percentage of PLA positive (PLA+) areas and DAPI positive (DAPI+) areas were calculated using ImageJ on images containing about 50 to 100 cells. The PLA+ area was measured after manually applying a fixed threshold. The DAPI+ area was measured after applying the “default” thresholding method in Image J.

wnt7aa morphants = experiment: Trunk DRG rescue in wnt7aa morphant zebrafish larvae; format: in vivo, Danio rerio; conditions: 100 pg mRNA injection, 72 hpf
Description: Zebrafish (Danio rerio) were raised and handled under standard conditions following the rules of the State of Belgium (protocol approval number: CEBEA-IBMM-2017-22:65). The following line was used: Tg(−17.0neurog1:EGFP)^w61 (McGraw et al., J. Neurosci 28(47):12558-69 (2008)).
as §1, §2

B1: Wnt7a^1-278: the N-terminal domain of Wnt7a, single domain truncated variant (protein)
chain: LGASIICNKIPGLAPRQRAICQSRPDAIIVIGEGSQMGLDECQFQFRNGRWNCSALGERTVFGKELKVGSREAAFTYAIIAAGVAHAITAACTQGNLSDCGCDKEKQGQYHRDEGWKWGGCSADIRYGIGFAKVFVDAREIKQNARTLMNLHNNEAGRKILEENMKLECKCHGVSGSCTTKTCWTTLPQFRELGYVLKDKYNEAVHVEPVRASRNKRPTFLKIKKPLSYRKPMDTDLVYIEKSPNYC
modifications: left off: small tags and cut ends
notes: the N-terminal domain of Wnt7a, single domain truncated variant
- mRNA dose well tolerated without posteriorizing or gross anatomical alterations (zebrafish zygote): up to 1 ng
- signaling through any Fz (all 10 Fz genes): failed to signal through any Fz
- Reck binding (anti-V5/anti-HA PLA signal) (HA-Reck): still binds Reck
- Reck binding (anti-V5/anti-HA PLA signal) (HA-Reck; listed as Wnt7a^NTD): bound to Reck as potently as full-length Wnt7a
- DRG rescue (wnt7aa morphants): significant DRG rescues
